Reference: patent publication US20230322924A1 (Janssen / Centocor, published 2023)
Substitutions are numbered along the chain they refer to. Numbers in names are those of the source.

B1: C33B48 (antibody, IgG1, V domains shown)
VH: QVQLVQSGSELRKPGASVKVSCKASGYTFTNYAMNWVRQAPGQGLEWMGWINTNTGNPTYAQGFTGRFVFSLDTSVSSAYLQISSLKAEDTAMYYCATDRDRGTDYWGQGTLVTVSS
VL: QSALTQPASVSGSPGQSITISCTGTSSDVGDYNYVSWYQQHPGKVPKLMIYDVSNRPSGVSNRFSGSMSGNTASLTISGLQAEDEADYYCSSYSSSSALEVFGGGTKLTVL
notes: huIgG1 F405L; also called C33F53; C33H80/C33L73
B2: C33B46 (antibody, IgG1, V domains shown)
VH: B1 VH with R12K, T30S, N31T, S78T, M93V, T98R
VL: B1 VL with Y32D, V45A, M68K, A82S, S97T, A98T
notes: huIgG1 F405L; also called C33F51; C33H108/C33L74
B3: C33B66 (antibody, IgG1, V domains shown)
VH: QVQLQESGPGLVKPSGTLSLTCAVSGGSISSSNWWSWVRQPPGRGLEWIGEIYHSGNTNNSPSLKSRVTISADKSKNQFSLKLSSVTAADTAVYFCARIIAVARYFDSWGQGTLVTVSS
VL: SYVLTQPPSVSVAPGQTARITCGGNNIGIKSVHWYQQKPGQAPVLVVYDDSDRPPGIPERFSGSNSGNTATLTITRVEAGDEADYYCQVWDSSSDHVVFGGGTKLTVL
notes: huIgG1 F405L; also called C33F71; C33H55/C33L42
B4: C33B101 (antibody, V domains shown)
VH: QLQLQESGPGLVKPSETLSLTCTVSGGSISSSSYYWGWIRQPPGKGLDWIGSINYSGSTYYNPSLKSRVTISVDTSKIQFSLKLRSVTAADTAVYYCARLDGYESPFDYWGQGTLVTVSS
VL: DIQMTQSPSSVSASVGDRVTITCRASQGISSWLAWYQQKPGKAPKLLIYAASSLQSGVPSRFSGSGSGTDFTLTISSLQPEDFATYYCQQANSFPFTFGPGTKVDIK
notes: huIgG1 F405L; 260 is used; also called C33F106; C33H69/C4LL152
B5: C33B123 (antibody, IgG1, V domains shown)
VH: QLQLQESGPGLVKPSETLSLTCTVSGGSISSRSHYWGWIRQPPGVGLEWIGSIYYTGSTYYNPSLKSRVTISVDTSKNQFSLKLSSVTAADTAVYYCARLADIVVVPAARYFDYWGQGTLVTVSS
VL: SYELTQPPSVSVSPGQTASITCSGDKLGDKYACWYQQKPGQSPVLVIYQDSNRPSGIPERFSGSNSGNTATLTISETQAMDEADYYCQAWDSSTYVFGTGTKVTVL
notes: huIgG1 F405L; also called C33F128; C33H91/C33L44
B6: C33B72 (antibody, IgG1, V domains shown)
VH: QVQLVESGGGVVQPGRSLRLSCAASGFTFSSYGMHWVRQAPGKGLEWVVVISYDGSNKYYADSVKGRFTISRDNSKNTLYLQMNSLRAEDTAVYYCAKDFRDFDWLPPDSTSYHGMDVWGQGTTVTVSS
VL: SYELTQPPSVSVSPGQTASITCSGDKLGDKYACWYQQKPGQSPVVVIYQDRKRPSGIPERFSGSNFGNTATLTISGTQAMDEADYYCQAWDSSTVVFGGGTKLTVL
notes: huIgG1 F405L; also called C33F77; C33H65/C33L47

Experiments:
Human CD33 ECD-HSA [1] = target: Human CD33 ECD-HSA (human); experiment: SPRi off-rate screen (IBIS MX96), mAb captured by anti-human Fc; column head prints KD
Description: (§1) To begin assessing the biophysical binding properties of the purified mAbs an off-rate screen was performed. 76 OMNIRat anti-CD33 mAbs were tested for binding to recombinant human CD33 ECD-HSA (C33W2) and cyno CD33 ECD-HSA (C33W1) proteins (Janssen production) and the off-rate was measured by IBIS MX96 SPRi array platform (Carterra; Newton, PA). […] The sensor chip was transferred to the Continuous Flow Microspotter (CFM) unit to capture each anti-CD33 mAb at 10 μg/ml for 10 minutes. Binding was measured on IBIS SPRi by single cycle kinetics without regeneration. […] The raw binding data (.trix file format) were referenced and aligned using SprintX software (Wasatch, Ver 1.9.3.2), then exported (.ibmx file format) to Scrubber software (Ver. 2.0) for 1:1 binding kinetic analyses (Wasatch, version 2.0.0.33) to extract the koff results.

Human CD33 ECD-HSA [2] = target: Human CD33 ECD-HSA (human); experiment: ProteOn SPR, mAb captured by anti-human Fc, 1:1 Langmuir fit
Description: (§2) The panel of mAbs was then further characterized for full affinity analysis as well as epitope binning. The binding of anti-CD33 mAbs to recombinant human CD33 ECD-HSA (C33W2) and cyno CD33 ECD-HSA (C33W1) was measured by ProteOn SPR (Bio-Rad). […] Different mAbs were captured on the anti-human Fc IgG surface at 0.25 or 0.5 μg/ml (160-300 RU) in vertical ligand orientation, with the 6th ligand channel as no ligand surface control. Human and cyno CD33-HSA proteins at 0.3 μM concentration in 3-fold dilution series of 5 concentrations flew in as analyte to bind to captured mAbs in the horizontal orientation. A buffer sample was also injected in the 6th channel to monitor the dissociation of captured mAb and baseline stability. […] The raw biding data were processed by double referencing after subtracting the response data from: 1) the inter-spot to correct for the non-specific interactions between the Ag and the empty chip surface; 2) the buffer channel to correct for baseline drifting due to the dissociation of captured mAb surface over time. The processed data at all antigen concentrations for each mAb were globally fit to a 1:1 simple Langmuir binding model to extract estimates of the kinetic (kₒₙ, koff) and affinity (Kd) constants.

Cyno CD33 ECD-HSA [3] = target: T1, Cyno CD33 ECD-HSA (cynomolgus monkey); experiment: as above
T1 construct: Cyno CD33 extracellular domain fused to monomeric human serum albumin and a six-histidine tag; also called C33W1
Description: as §2

[4] = target: T2, Cyno CD33 full length, expressed on HEK293F cells (cynomolgus monkey); experiment: flow cytometry, HEK293F cells expressing cyno CD33
T2 construct: HEK293F cells transduced with lentivirus containing full length cyno CD33 (Genbank XP_005590138.1); also called cyCD33
Description: (§3) OMNIRat antibodies identified via immunization, v-region cloned and subsequently expressed and purified were characterized further for binding to CD33 expressing cells and binding to recombinant antigens. The purified antibodies were assessed for binding to stably transfected HEK293F cells expressing human CD33 or cyno CD33 (generation described above) along with the parental HEK293F as negative control. Cells were harvested from tissue culture flasks using non-enzymatic dissociation buffer (Thermo Scientific). The flasks were rinsed twice with PBS and dissociation buffer was added to the flask, and the flask was incubated for 10 minutes at 37° C. until the cells became non-adherent. The cells were centrifuged at 300 g for 5 minutes and resuspended at 1.0×10⁶ cells/ml in staining buffer (Becton Dickinson; Franklin Lakes, NJ). 50,000 cells/well of each cell type was plated in 50 μl of staining buffer in round bottom plates (Becton Dickinson). […] 100 μl staining buffer was added to all wells of each plate, the plates were spun at 300 g for 5 min, the buffer was removed, 200 μl staining buffer was added to all wells of each plate, the plates were spun at 300 g for 5 min, and the buffer was removed. 50 μl of 2 μg/ml of Goat-anti-human Fc AF647 secondary antibody (Jackson Immunoresearch; West Grove, PA) was added to all wells of the plates, and the plates were incubated for 30 min at 4° C. 100 μl staining buffer was added to all wells of the plates, the plates were spun at 300 g for 5 min, and the buffer was removed. 200 μl running buffer (running buffer is Staining buffer, 1 mM EDTA, 0.1% Pluronic Acid) was added to all wells of the plates, the plates were spun at 300 g for 5 min, and the buffer was removed. 30 μl running buffer containing Sytox Green live/dead dye (ThermoFisher) was added to all wells with cells and the plates were read on an iQue IntelliCyt flow cytometer. Cells were gated on forward vs. side scatter to eliminate debris, then on singlets and then on live cells which excluded the Sytox stain. Antibody binding was assessed by the mean fluorescence intensity in the AF647 channel.

[5] = target: T3, Human CD33 full length, expressed on HEK293F cells (human, UniProt P20138 18-364); experiment: flow cytometry, HEK293F cells expressing human CD33
T3 construct: HEK293F cells transduced with lentivirus containing full length human CD33; also called huCD33
Description: as §3

Cyno CD33 ECD-HSA [6] = target: T1, Cyno CD33 ECD-HSA; experiment: SPRi off-rate screen (IBIS MX96), mAb captured by anti-human Fc; column head prints Cyno CD33 binding KD
Description: as §1

Chain of Human CD33 ECD-HSA (human) (chain, as listed by the source): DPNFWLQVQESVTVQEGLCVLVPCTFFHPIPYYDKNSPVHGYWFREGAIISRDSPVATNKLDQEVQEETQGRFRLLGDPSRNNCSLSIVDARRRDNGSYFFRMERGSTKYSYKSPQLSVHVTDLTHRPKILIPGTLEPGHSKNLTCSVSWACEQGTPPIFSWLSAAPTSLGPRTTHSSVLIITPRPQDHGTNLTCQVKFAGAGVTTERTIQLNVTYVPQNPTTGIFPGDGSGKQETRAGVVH
T3 sequence (P20138 18-364 limits assumed): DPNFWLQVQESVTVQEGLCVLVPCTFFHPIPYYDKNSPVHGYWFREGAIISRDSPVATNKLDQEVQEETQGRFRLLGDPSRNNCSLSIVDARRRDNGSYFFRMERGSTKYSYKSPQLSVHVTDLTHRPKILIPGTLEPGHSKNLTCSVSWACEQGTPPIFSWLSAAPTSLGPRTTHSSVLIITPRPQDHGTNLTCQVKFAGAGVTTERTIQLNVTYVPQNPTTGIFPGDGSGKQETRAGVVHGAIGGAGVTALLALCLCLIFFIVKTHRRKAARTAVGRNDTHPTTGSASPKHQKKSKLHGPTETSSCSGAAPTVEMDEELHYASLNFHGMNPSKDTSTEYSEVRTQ

Row | Binder | koff (Human CD33 ECD-HSA [1]) | Kd (Human CD33 ECD-HSA [2]) | koff (Human CD33 ECD-HSA [2]) | kon (Human CD33 ECD-HSA [2]) | Kd (Cyno CD33 ECD-HSA [3]) | koff (Cyno CD33 ECD-HSA [3]) | kon (Cyno CD33 ECD-HSA [3]) | MFI at 0 nM mAb (background) [4] | MFI at 0.6 nM mAb [4] | MFI at 6 nM mAb [4] | MFI at 60 nM mAb [4] | MFI at 0 nM mAb (background) [5] | MFI at 0.6 nM mAb [5] | MFI at 6 nM mAb [5] | MFI at 60 nM mAb [5] | koff (Cyno CD33 ECD-HSA [6])
1 | B1 | 5.47e-05 s⁻¹ | 0.0112 nM | 1.82e-05 s⁻¹ | 1.62e+06 M⁻¹ s⁻¹ | 0.0366 nM | 0.000158 s⁻¹ | 4.31e+06 M⁻¹ s⁻¹ | 94 MFI | 43400 MFI | 47300 MFI | 56500 MFI | 91.1 MFI | 391000 MFI | 429000 MFI | 401000 MFI | 0.00012 s⁻¹
2 | B2 | 0.000467 s⁻¹ | 1.38 nM | 0.00199 s⁻¹ | 1.45e+06 M⁻¹ s⁻¹ | 0.126 nM | 0.000375 s⁻¹ | 2.97e+06 M⁻¹ s⁻¹ | 92 MFI | 49700 MFI | 49800 MFI | 49800 MFI | 135 MFI | 418000 MFI | 448000 MFI | 510000 MFI | 0.000148 s⁻¹
3 | B3 | 0.000859 s⁻¹ | 52.9 nM | 0.00203 s⁻¹ | 38500 M⁻¹ s⁻¹ | 0.217 nM | 0.000266 s⁻¹ | 1.22e+06 M⁻¹ s⁻¹ | 78 MFI | 42200 MFI | 49100 MFI | 48900 MFI | 130 MFI | 56600 MFI | 313000 MFI | 445000 MFI | 9.33e-05 s⁻¹
4 | B4 | 0.000398 s⁻¹ | 6.64 nM | 0.00108 s⁻¹ | 162000 M⁻¹ s⁻¹ | 1.2 nM | 0.000269 s⁻¹ | 225000 M⁻¹ s⁻¹ | 79.7 MFI | 18000 MFI | 46100 MFI | 48000 MFI | 70.1 MFI | 35500 MFI | 205000 MFI | 269000 MFI | 0.000106 s⁻¹
5 | B5 | 0.0103 s⁻¹ | 14.8 nM | 0.0152 s⁻¹ | 1.02e+06 M⁻¹ s⁻¹ | 2.69 nM | 0.00339 s⁻¹ | 1.26e+06 M⁻¹ s⁻¹ | 61.1 MFI | 3230 MFI | 10400 MFI | 10700 MFI | 71 MFI | 8860 MFI | 88200 MFI | 224000 MFI | 0.00274 s⁻¹
6 | B6 | 0.000284 s⁻¹ | 0.23 nM | 0.0002 s⁻¹ | 871000 M⁻¹ s⁻¹ | 0.587 nM | 0.00054 s⁻¹ | 919000 M⁻¹ s⁻¹ | 90.8 MFI | 3890 MFI | 14000 MFI | 19400 MFI | 93.3 MFI | 12500 MFI | 105000 MFI | 328000 MFI | 0.000763 s⁻¹
